± gives the standard deviation of the averaged measurements.
tested on: Saccharomyces cerevisiae; test: protein stability index of tFT-peptide fusion in deletion strain of DAS1 (PSI (0-1 scale)); higher = more stable (slower turnover); details: not given
Description: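 MPS profiling in S. cerevisiae of two library types built from selected 12-aa C-degron peptides (IN1, IN2, LN1, LN3, VN2, R1-R5, W1-W3, Atg1 and Rpa12 C-termini): saturation mutagenesis libraries and C-terminal +1 capping libraries (13 aa). Each peptide is fused to the C-terminus of a sfGFP-mCherry timer, after a GGGS linker. Cells are FACS-sorted into 8 mCherry/sfGFP bins and sequenced. PSI runs from 0 (unstable) to 1 (stable), measured once in wild type and in the das1Δ or doa10Δ background.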
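Throughout, for protein stability index of tFT-peptide fusion in deletion strain of DAS1: PSI is a weighted mean of each variant's read distribution over the sorted stability bins, computed only for variants having over 10 reads in total.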

First: AEWRVGLWRGAS
Second: AHWRVGLWRGAS
The protein stability index of the first is higher: 0.689 for the first, 0.688 for the second.

Compared with ARIRVGLWRGAS, ARRRVGLWRGAS is higher in protein stability index: 0.686 for the first, 0.723 for the second.

Going from ARWLVGLWRGAS to ARWRDGLWRGAS, the protein stability index falls from 0.706 to 0.692.

First: ARWRVELWRGAS
Second: ARWRVGAWRGAS
The protein stability index of the first is lower: 0.665 for the first, 0.688 for the second.

Going from ARWRVGLVRGAS to ARWRVGLWHGAS, the protein stability index rises from 0.663 to 0.665.

Compared with ARWRVGLWKGAS, ARWRVGLWQGAS is lower in protein stability index: 0.671 for the first, 0.578 for the second.

First: ARWRVGLWRGASG
Second: ARWRVGLWRGASP
The protein stability index of the first is higher: 0.674 for the first, 0.672 for the second.

First: ARWRVGLWRKAS
Second: ARWRVGLWRWAS
The protein stability index of the first is lower: 0.672 for the first, 0.694 for the second.

First: ARWRVGSWRGAS
Second: ARWRVQLWRGAS
The protein stability index of the first is higher: 0.692 for the first, 0.689 for the second.

tested on: Saccharomyces cerevisiae; test: protein stability index of tFT-peptide fusion (C-terminal peptide) (PSI (0-1 scale)); higher = more stable (slower turnover); details: genetic background: das1 deletion; temperature: 30 C
Description: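 MPS profiling in S. cerevisiae of the yeast C-terminome library: the last 12 aa of each annotated ORF are fused to the C-terminus of a sfGFP-mCherry timer, after a GGGS linker. Cells are FACS-sorted into 8 mCherry/sfGFP bins and deep-sequenced. PSI runs from 0 (unstable) to 1 (stable); wild type and das1Δ backgrounds, two technical replicates each.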

TVNYLHRLLETD [ISN1 C-terminal 12 aa] and TVPGDENKITKK [PDR12 C-terminal 12 aa] are within error of each other in protein stability index: 0.73 ± 0.009 for the first, 0.711 ± 0.017 for the second.

TVSDGGSIFECS [RAD28 C-terminal 12 aa] and TYRLLLRLHAQD [FAR7 C-terminal 12 aa] are within error of each other in protein stability index: 0.7127 ± 0.0051 for the first, 0.68 ± 0.035 for the second.

TYSYTIDHPVLT [NUP100 C-terminal 12 aa] and VAASKASKKSKI [NSA1 C-terminal 12 aa] are within error of each other in protein stability index: 0.659 ± 0.021 for the first, 0.683 ± 0.035 for the second.

Going from VAFFKAVGATIM [YOR146W C-terminal 12 aa] to VAKAEKLAAEAN [ATP2 C-terminal 12 aa], the protein stability index rises from 0.625 ± 0.011 to 0.684 ± 0.03.

Compared with VDALQIQYNRRP [SCD5 C-terminal 12 aa], VDESWLPETYKK [IRC22 C-terminal 12 aa] is higher in protein stability index: 0.681 ± 0.013 for the first, 0.7425 ± 0.0014 for the second.

First: VDQLFEKASVLY [RPN6 C-terminal 12 aa]
Second: VFISTVLLAIVW [YAL065C C-terminal 12 aa]
The protein stability index of the first is higher: 0.68 ± 0.017 for the first, 0.196 ± 0.015 for the second.

Going from VFPDVLFTFLFS [YEL010W C-terminal 12 aa] to VFPGNYVQLNKN [RVS167 C-terminal 12 aa], the protein stability index falls from 0.70228 ± 0.00029 to 0.6933 ± 0.0022.

VGFAVMALMDEH [YKE4 C-terminal 12 aa] and VHDDSRCYTHFY [BNI4 C-terminal 12 aa] are within error of each other in protein stability index: 0.703 ± 0.052 for the first, 0.7313 ± 0.0033 for the second.

VHKFGWSLSFSP [POR2 C-terminal 12 aa] and VKEIPEYSHLID [GCN5 C-terminal 12 aa] are within error of each other in protein stability index: 0.701 ± 0.017 for the first, 0.718 ± 0.0055 for the second.

VKIATSILGKKL [PGS1 C-terminal 12 aa] and VKQMRKKKDKGD [MSB3 C-terminal 12 aa] are within error of each other in protein stability index: 0.68478 ± 0.00021 for the first, 0.688 ± 0.0093 for the second.

Going from VKSSMGPAFRLY [RPL1A C-terminal 12 aa] to VKTLANEILNII [ECM11 C-terminal 12 aa], the protein stability index falls from 0.6853 ± 0.0045 to 0.6687 ± 0.0062.

First: VLLTILLFIQAY [SPO19 C-terminal 12 aa]
Second: VLMLETIAYLFS [NFG1 C-terminal 12 aa]
The protein stability index of the first is lower: 0.1801 ± 0.0012 for the first, 0.487 ± 0.022 for the second.

Compared with “VNNFKMFSNSSV [YIL115W-A C-terminal 12 aa]”, VPDIPPPPALVA [NUP42 C-terminal 12 aa] is lower in protein stability index: 0.704 ± 0.027 for the first, 0.632 ± 0.034 for the second.

VPEEQRIKRRKI [IRC4 C-terminal 12 aa] and VPKSLYGVTRTR [GAT3 C-terminal 12 aa] are within error of each other in protein stability index: 0.705 ± 0.037 for the first, 0.697 ± 0.008 for the second.

VPYAKILDQCIL [YGL230C C-terminal 12 aa] and VQNLIAAVMGEL [PNP1 C-terminal 12 aa] are within error of each other in protein stability index: 0.693 ± 0.027 for the first, 0.7186 ± 0.002 for the second.

VRADDLSTRFNI [RRP43 C-terminal 12 aa] and VSIYKPYTEESE [WTM1 C-terminal 12 aa] are within error of each other in protein stability index: 0.657 ± 0.0082 for the first, 0.662 ± 0.0069 for the second.

Compared with VSPYDYNHKRVS [DIB1 C-terminal 12 aa], VTRAAESLGFTV [MIP6 C-terminal 12 aa] is higher in protein stability index: 0.69264 ± 0.00023 for the first, 0.6997 ± 0.0036 for the second.

VVAQKPKLPYTK [YBR225W C-terminal 12 aa] and VVNKYLKENGYY [APE2 C-terminal 12 aa] are within error of each other in protein stability index: 0.694 ± 0.026 for the first, 0.705 ± 0.02 for the second.

VVVTGNLQILEH [UGP1 C-terminal 12 aa] and VYARDAAALRPV [SCS3 C-terminal 12 aa] are within error of each other in protein stability index: 0.678 ± 0.03 for the first, 0.716 ± 0.021 for the second.

VYEVVCDSVRNW [MRX21 C-terminal 12 aa] and VYEYIVNVNEYA [CPS1 C-terminal 12 aa] are within error of each other in protein stability index: 0.692 ± 0.023 for the first, 0.6949 ± 0.0031 for the second.

Compared with WEHAMRSRRHKR [SWC3 C-terminal 12 aa], WEKFIELEKNYK [MST1 C-terminal 12 aa] is lower in protein stability index: 0.726 ± 0.0012 for the first, 0.696 ± 0.0078 for the second.

Compared with “WHKHKTSSDKNI [YDR261C-D C-terminal 12 aa]”, WKLAKLQIDEAL [SNX41 C-terminal 12 aa] is lower in protein stability index: 0.733 ± 0.02 for the first, 0.693 ± 0.0081 for the second.

WLSKSGSSAALP [TOS1 C-terminal 12 aa] and “WQLVDNYESGYE [YGL194C-A C-terminal 12 aa]” are within error of each other in protein stability index: 0.717 ± 0.014 for the first, 0.7087 ± 0.0048 for the second.

Going from WQTLVMILQESG [NPL4 C-terminal 12 aa] to WTLLSRFLDREW [ATG36 C-terminal 12 aa], the protein stability index rises from 0.392 ± 0.0077 to 0.684 ± 0.015.

Going from WVDAFGIIYGAL [YIL108W C-terminal 12 aa] to YALKRNAFKLLK [CRD1 C-terminal 12 aa], the protein stability index falls from 0.7436 ± 0.0063 to 0.682 ± 0.011.

YDLEAGENKFNF [URA7 C-terminal 12 aa] and YEKVVELWNKVV [MNT4 C-terminal 12 aa] are within error of each other in protein stability index: 0.7022 ± 0.0022 for the first, 0.701 ± 0.018 for the second.

YEPTDWECTDAP [YJR096W C-terminal 12 aa] and YITTPSSSGHAL [YIL141W C-terminal 12 aa] are within error of each other in protein stability index: 0.7254 ± 0.0027 for the first, 0.716 ± 0.0081 for the second.

YKIKKQPRKKQQ [HST1 C-terminal 12 aa] and YKLGPGEDTATK [DPL1 C-terminal 12 aa] are within error of each other in protein stability index: 0.739 ± 0.015 for the first, 0.707 ± 0.023 for the second.

First: YLALKWIVVEQK [ADP1 C-terminal 12 aa]
Second: YLEHQQIHGRVV [YHR145C C-terminal 12 aa]
The protein stability index of the first is lower: 0.521 ± 0.021 for the first, 0.679 ± 0.017 for the second.

YLKNYFKTKHII [ERV25 C-terminal 12 aa] and “YLTFYKSPKTFY [YDR183C-A C-terminal 12 aa]” are within error of each other in protein stability index: 0.702 ± 0.018 for the first, 0.71 ± 0.037 for the second.

“YNSDSGSYYTLM [YOR192C-C C-terminal 12 aa]” and YPGEAKRPQERF [COX10 C-terminal 12 aa] are within error of each other in protein stability index: 0.704 ± 0.017 for the first, 0.6898 ± 0.0058 for the second.

Going from YSDTIWNVEPVT [GPH1 C-terminal 12 aa] to YSKHLKRLLPYH [MRP35 C-terminal 12 aa], the protein stability index falls from 0.729 ± 0.015 to 0.6788 ± 0.0019.

With YTNLIASKVKKQ [YKL177W C-terminal 12 aa] the protein stability index was 0.714 ± 0.036.
